Residue numbers refer to the chain shown, from its start. “And” between values parts separate entries of the source, which are not always exact repeats. Equal entries are not always repeated. Where two headings read alike, the source gives them in different places. Values belong to the binder of their own block, whether it stands above or below them.
Experiments:
[1] = target: T1, bio-LAG3-mFc (human, UniProt P18627 23-450, biotin-labelled); assay: blocking ELISA, LAG-3 on Daudi cells
T1 construct: also called hLAG-3
T1 sequence (looked up): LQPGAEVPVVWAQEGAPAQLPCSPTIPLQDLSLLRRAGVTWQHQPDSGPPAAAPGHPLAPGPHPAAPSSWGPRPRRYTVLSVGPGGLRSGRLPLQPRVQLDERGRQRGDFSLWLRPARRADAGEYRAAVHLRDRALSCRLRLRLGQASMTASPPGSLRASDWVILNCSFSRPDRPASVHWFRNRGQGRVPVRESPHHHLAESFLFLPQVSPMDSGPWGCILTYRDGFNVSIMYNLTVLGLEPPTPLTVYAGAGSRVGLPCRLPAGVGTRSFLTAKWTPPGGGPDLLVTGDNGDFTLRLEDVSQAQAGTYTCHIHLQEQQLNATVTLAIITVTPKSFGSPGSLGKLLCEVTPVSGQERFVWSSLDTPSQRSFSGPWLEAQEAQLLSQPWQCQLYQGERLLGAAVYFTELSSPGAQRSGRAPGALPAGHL

[2] = target: T2, human LAG-3 on CHO-K1 cells (hLAG-3+ cells) (human, UniProt P18627 23-525); assay: cell ELISA on fixed CHO-K1 hLAG-3+ cells
T2 construct: whole, on cells; Cells fixed in the cell ELISA; also called CHO-K1hLAG-3+ cell strain
T2 sequence (looked up): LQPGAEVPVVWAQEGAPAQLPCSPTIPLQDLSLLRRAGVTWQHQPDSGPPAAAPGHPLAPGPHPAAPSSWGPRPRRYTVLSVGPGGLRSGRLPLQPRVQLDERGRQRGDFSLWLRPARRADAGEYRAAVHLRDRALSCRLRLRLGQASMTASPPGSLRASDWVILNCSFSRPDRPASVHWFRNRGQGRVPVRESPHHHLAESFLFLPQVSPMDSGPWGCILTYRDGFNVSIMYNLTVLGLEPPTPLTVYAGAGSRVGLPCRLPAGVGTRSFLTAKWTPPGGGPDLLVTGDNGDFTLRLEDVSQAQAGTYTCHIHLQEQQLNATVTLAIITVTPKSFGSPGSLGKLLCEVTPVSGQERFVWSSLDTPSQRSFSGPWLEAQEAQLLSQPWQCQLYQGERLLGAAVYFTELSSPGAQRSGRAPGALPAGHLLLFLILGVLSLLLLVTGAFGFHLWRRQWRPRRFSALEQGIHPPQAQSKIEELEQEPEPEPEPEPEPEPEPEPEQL
Method: After washing with PBS (BasalMedia Biology, Cat. No.: B320) once, 5% milk was added with 230 μl per well, and the microplate was incubated for 2 hours at 37° C. for blocking, and then was washed three times with PBST. After washing, each well was added with 50 μl sample (the samples were 5-fold serially diluted with an initial concentration of 10 μg/ml). The microplate was then incubated for 1 hour at 37° C. and washed 5 times with PBST. […] After washing the microplate 5 times with PBST, 50 μl/well TMB (Sunnodic, Cat. No.: TTMB-1000-01) was added to the microplate for color development. Finally, 50 μl/well of 1M H₂SO₄ was added to stop the reaction. The microplate was then read by a microplate reader (MultiskanGO Thermo, model 511919200), and the data were analyzed using Graphpad prism 5.

[3] = target: T1, bio-LAG3-mFc; assay: blocking of LAG3 binding to Daudi cells, same experiment
Method: The Daudi cell line (ATCC, CCL-213) was expanded and seeded into 96-well microplate at a density of 2×10⁵ cells/well, and then centrifuged at 1600 rpm for 10 min; thereafter the cells were fixed with 100 μl/well of a fixative solution for immunostaining (Shanghai Beyotime Biotechnology Co., Ltd., Cat. No.: P0098) for half an hour at room temperature. After washing with PBS (BasalMedia Biology, Cat. No.: B320) once, 5% milk was added with 230 μl per well, and the microplate was incubated for 2 hours at 37° C. for blocking, then was washed three times with PBST. […] The microplate was then incubated for 1 hour at 37° C. and washed 5 times with PBST. 50 μl/well of 1:1000 diluted streptavidin-HRP secondary antibody (GenScript, Cat. No.: M00091) was added to the microplate and incubated for 1 hour at 37° C. After washing the microplate 5 times with PBST, 50 μl/well TMB (Surmodic, Cat. No.: TTMB-1000-01) was added to the microplate for color development, and 50 μl/well 1M H₂SO₄ was added to stop the reaction. The microplate was then read by a microplate reader (MuitiskanGo Thermo, model 511919200), and the data were analyzed using GraphPad prism 5.

[4] = target: T3, human LAG-3-his (human, UniProt P18627 23-422); assay: ELISA on coated human LAG-3, OD450 (Example 3, Example 13) [panel a]
T3 construct: range 23-422; also called hLAG-3-his; hLAG-3
T3 sequence: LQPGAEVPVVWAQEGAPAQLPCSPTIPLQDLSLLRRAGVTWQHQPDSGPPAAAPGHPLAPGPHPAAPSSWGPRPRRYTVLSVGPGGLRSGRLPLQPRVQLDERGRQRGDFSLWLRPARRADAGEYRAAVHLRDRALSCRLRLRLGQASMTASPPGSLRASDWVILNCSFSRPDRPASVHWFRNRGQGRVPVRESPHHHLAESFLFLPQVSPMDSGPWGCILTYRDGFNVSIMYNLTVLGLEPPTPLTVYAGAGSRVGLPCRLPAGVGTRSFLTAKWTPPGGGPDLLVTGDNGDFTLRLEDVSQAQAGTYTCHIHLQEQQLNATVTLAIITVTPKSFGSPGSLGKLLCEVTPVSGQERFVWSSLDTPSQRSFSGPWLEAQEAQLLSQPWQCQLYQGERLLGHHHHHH

[5] = target: T3, human LAG-3-his; assay: as above; remark: listed apart in the source
[6] = target: T3, human LAG-3-his; assay: as above; remark: listed apart in the source
[7] = target: T3, human LAG-3-his; assay: as above; remark: listed apart in the source

fold stronger blocking activity than Ref [1]: ≥ 2 times
EC50 [2]: 0.2 nM
IC50 [3]: 9.78 nM and 28 nM
EC50 (read off the curve) [4]: ~0.3 nM
EC50 (read off the curve) [5]: ~0.3 nM
EC50 (read off the curve) [6]: ~0.3 nM
EC50 (read off the curve) [7]: ~0.3 nM
B1: humanized anti-human LAG-3 antibody Ab2317 (antibody, human IgG4 S228P, kappa, V domains shown)
VH: QVQLVQSGAEVKKPGASVKVSCKASGYTFTDYEMHWVKQAPGQGLEWIGGIDPETEGIAYNQKFRGRATLTADKSTSTAYMELRSLRSDDTAVYYCTNSNYYGGREAWFAYWGQGTLVTVSS
VL: DIQMTQSPSSLSASVGDRVTITCRASQDIGSSLNWYQQKPGKAPKRLIYATSSLDSGVPSRFSGSRSGSDFTLTISSLQPEDFATYYCLQYVTSPLTFGGGTKVEIKR
notes: LG2317 / LG2343, human kappa / hIgG4

EC50 [2]: 0.19 nM
B2: humanized antibody Ab2325 (antibody, human IgG4 S228P, kappa, V domains shown)
VH: B1 VH with I48M, L70M, A72T, K74T, T97A
VL: B1 VL
notes: LG2317 / LG2348, human kappa / hIgG4
